Columns and labels:
[1] = molecular target: HIV-1 Env (LAV) (HIV-1 (LAV)) (UniProt P03377); experiment: cell-based or functional assay
[2] = molecular target: HIV-1 wildtype (WT) SF162 Env (HIV-1 (SF162)) (UniProt P19550); experiment: cell-based or functional assay

% control, Standard Assay (target cells with CXCR4 and CD4, no sCD4); 17b 0.1 µg/ml [1] [% control]	% control, Standard Assay (target cells with CXCR4 and CD4, no sCD4); 17b 0.5 µg/ml [1] [% control]	% control, Standard Assay (target cells with CXCR4 and CD4, no sCD4); 17b 1 µg/ml [1] [% control]	% control, Standard Assay (target cells with CXCR4 and CD4, no sCD4); 17b 5 µg/ml [1] [% control]	% control, sCD4 Assay (target cells with CXCR4 alone, sCD4 200 nM added); 17b 0.1 µg/ml [1] [% control]	% control, sCD4 Assay (target cells with CXCR4 alone, sCD4 200 nM added); 17b 0.5 µg/ml [1] [% control]	% control, sCD4 Assay (target cells with CXCR4 alone, sCD4 200 nM added); 17b 1 µg/ml [1] [% control]	% control, sCD4 Assay (target cells with CXCR4 alone, sCD4 200 nM added); 17b 5 µg/ml [1] [% control]	β-gal, Standard Assay (target cells with CXCR4 and CD4, no sCD4); 17b 0.1 µg/ml; no MAb 42.3 [1]	β-gal, Standard Assay (target cells with CXCR4 and CD4, no sCD4); 17b 0.5 µg/ml [1]	β-gal, Standard Assay (target cells with CXCR4 and CD4, no sCD4); 17b 1 µg/ml [1]	β-gal, Standard Assay (target cells with CXCR4 and CD4, no sCD4); 17b 5 µg/ml [1]	β-gal, sCD4 Assay (target cells with CXCR4 alone, sCD4 200 nM added); 17b 0.1 µg/ml; no MAb 11.89 [1]	β-gal, sCD4 Assay (target cells with CXCR4 alone, sCD4 200 nM added); 17b 0.5 µg/ml [1]	β-gal, sCD4 Assay (target cells with CXCR4 alone, sCD4 200 nM added); 17b 1 µg/ml [1]	β-gal, sCD4 Assay (target cells with CXCR4 alone, sCD4 200 nM added); 17b 5 µg/ml [1]	Substance	Total β-gal, WT Env (SF162), duplicate 1; effector cells with Env, target cells with CCR5 and no CD4; + sCD4 (100 nM) [2]	Total β-gal, WT Env (SF162), mean; + sCD4 (100 nM); 0.45 without sCD4 [2]
93.4	104	94.1	119	114	39.2	14.1	0	39.5	43.9	39.8	50.5	13.6	4.66	1.68	0	MAb 17b (antibody)		
																soluble CD4 (from UniProt P01730 26-208) (receptor)	6.6	5.9

Reference: patent publication EP1161455B1
